In general, Kd refers to the constant that tells how readily two partners part at equilibrium.

The test deals with NLRP3 protein, purchased recombinant (UniProt Q96P20 1-1036). Kind of test: SPR.
Sequence of NLRP3 protein, purchased recombinant (Q96P20 whole entry): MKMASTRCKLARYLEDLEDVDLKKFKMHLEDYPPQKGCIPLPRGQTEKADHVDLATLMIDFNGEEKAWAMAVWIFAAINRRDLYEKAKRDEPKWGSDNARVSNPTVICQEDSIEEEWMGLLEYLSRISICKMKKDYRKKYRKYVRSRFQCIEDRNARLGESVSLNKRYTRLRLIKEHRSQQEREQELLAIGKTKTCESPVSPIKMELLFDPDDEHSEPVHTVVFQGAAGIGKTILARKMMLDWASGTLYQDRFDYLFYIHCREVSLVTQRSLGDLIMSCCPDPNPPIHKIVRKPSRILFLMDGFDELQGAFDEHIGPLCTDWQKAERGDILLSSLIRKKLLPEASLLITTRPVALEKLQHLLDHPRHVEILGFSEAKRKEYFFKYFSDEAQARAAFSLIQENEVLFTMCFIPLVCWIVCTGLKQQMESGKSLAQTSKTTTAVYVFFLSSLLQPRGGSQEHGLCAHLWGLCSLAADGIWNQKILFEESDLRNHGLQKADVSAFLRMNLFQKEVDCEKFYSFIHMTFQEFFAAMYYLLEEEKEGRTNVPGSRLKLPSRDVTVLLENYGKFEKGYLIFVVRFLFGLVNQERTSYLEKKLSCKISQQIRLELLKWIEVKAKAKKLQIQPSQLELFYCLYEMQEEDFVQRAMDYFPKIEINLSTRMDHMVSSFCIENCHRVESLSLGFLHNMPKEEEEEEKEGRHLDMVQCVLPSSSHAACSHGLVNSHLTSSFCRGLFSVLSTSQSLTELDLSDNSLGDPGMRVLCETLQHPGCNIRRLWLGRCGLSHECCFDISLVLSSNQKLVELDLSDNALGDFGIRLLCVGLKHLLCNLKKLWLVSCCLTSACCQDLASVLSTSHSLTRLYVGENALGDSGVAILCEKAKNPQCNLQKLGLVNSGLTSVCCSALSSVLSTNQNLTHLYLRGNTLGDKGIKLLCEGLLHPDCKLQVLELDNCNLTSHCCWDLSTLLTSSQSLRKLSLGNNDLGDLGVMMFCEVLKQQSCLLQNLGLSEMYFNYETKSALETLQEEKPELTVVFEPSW

B1: ASCT2 protein (alanine-serine-cysteine transporter 2), purchased recombinant (natural protein, UniProt Q15758 1-541, looked up)
chain: MVADPPRDSKGLAAAEPTANGGLALASIEDQGAAAGGYCGSRDQVRRCLRANLLVLLTVVAVVAGVALGLGVSGAGGALALGPERLSAFVFPGELLLRLLRMIILPLVVCSLIGGAASLDPGALGRLGAWALLFFLVTTLLASALGVGLALALQPGAASAAINASVGAAGSAENAPSKEVLDSFLDLARNIFPSNLVSAAFRSYSTTYEERNITGTRVKVPVGQEVEGMNILGLVVFAIVFGVALRKLGPEGELLIRFFNSFNEATMVLVSWIMWYAPVGIMFLVAGKIVEMEDVGLLFARLGKYILCCLLGHAIHGLLVLPLIYFLFTRKNPYRFLWGIVTPLATAFGTSSSSATLPLMMKCVEENNGVAKHISRFILPIGATVNMDGAALFQCVAAVFIAQLSQQSLDFVKIITILVTATASSVGAAGIPAGGVLTLAIILEAVNLPVDHISLILAVDWLVDRSCTVLNVEGDALGAGLLQNYVDRTESRSTEPELIQVKSELPLDPLPVPTEEGNPLLKHYRGPAGDATVASEKESVM
For the molecule B1, the Kd is ~3.45 µM.

The values are drawn from publication PMC9978855 (Acta Pharmaceutica Sinica. B, 2022).
